Here are results for 50 sequences from the supplement of paper PMC9112550, “Optimization of the antimicrobial peptide Bac7 by deep mutational scanning” (BMC Biology, 2022).

The data set has as its system Escherichia coli TOP10. The experiment in a line: shrunken log2 fold change of peptide-encoding DNA abundance (4.5 h post-induction vs induction); higher = less antimicrobial activity (less host growth inhibition). The settings on record: time post-induction: 4.5 h; library: site-saturation at positions 5, 18, 19, 20.
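Further: peptides expressed intracellularly from a pBAD plasmid library in pooled LB shake-flask culture, induced with 0.3% L-arabinose, DNA abundance read by NGS, three biological replicates, DESeq2 with apeglm shrinkage.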

Take RRIRIRPPRLPRPRPRPYWTPRP: the “shrunken log2 fold change” value was -0.18.

Turning to RRIRPRPPRLPRPRPRPSNPPRP, the “shrunken log2 fold change” value was -0.0794.

RRIRIRPPRLPRPRPRPPCRPRP: the “shrunken log2 fold change” value is 0.0264.

Regarding RRIRLRPPRLPRPRPRPLWLPRP, the “shrunken log2 fold change” value is -0.0303.

In the case of RRIRCRPPRLPRPRPRPCHFPRP, the “shrunken log2 fold change” value is -0.273.

RRIRQRPPRLPRPRPRPSQNPRP: the “shrunken log2 fold change” value is -0.383.

Turning to RRIRARPPRLPRPRPRPLLIPRP, the “shrunken log2 fold change” value was -0.0375.

As to RRIRSRPPRLPRPRPRPVHIPRP, the “shrunken log2 fold change” value was -0.124.

RRIRLRPPRLPRPRPRPHRHPRP: the “shrunken log2 fold change” value was -0.361.

Take RRIRNRPPRLPRPRPRPQHRPRP: the “shrunken log2 fold change” value is -0.215.

As to RRIRCRPPRLPRPRPRPEAPPRP, the “shrunken log2 fold change” value came to 0.755.

Regarding RRIRKRPPRLPRPRPRPETIPRP, the “shrunken log2 fold change” value came out at 0.0906.

Consider RRIRCRPPRLPRPRPRPGPDPRP, for which the “shrunken log2 fold change” value came out at 0.359.

Regarding RRIRLRPPRLPRPRPRPRDFPRP, the “shrunken log2 fold change” value was -0.206.

As for RRIRWRPPRLPRPRPRPQTPPRP, the “shrunken log2 fold change” value stood at 1.07.

Take RRIRQRPPRLPRPRPRPFANPRP: the “shrunken log2 fold change” value turned out to be 0.0297.

In the case of RRIRVRPPRLPRPRPRPQQEPRP, the “shrunken log2 fold change” value was 0.0458.

For the sequence RRIRRRPPRLPRPRPRPYGGPRP, the “shrunken log2 fold change” value is -0.326.

As to RRIRRRPPRLPRPRPRPAKGPRP, the “shrunken log2 fold change” value is -0.0594.

On to RRIRERPPRLPRPRPRPNSIPRP, for which the “shrunken log2 fold change” value was -0.317.

Regarding RRIRTRPPRLPRPRPRPENCPRP, the “shrunken log2 fold change” value is 0.072.

For the sequence RRIRLRPPRLPRPRPRPPLQPRP, the “shrunken log2 fold change” value amounted to 0.67.

In the case of RRIRYRPPRLPRPRPRPGGMPRP, the “shrunken log2 fold change” value was -0.297.

RRIRNRPPRLPRPRPRPMMLPRP: the “shrunken log2 fold change” value is -0.0295.

As to RRIRIRPPRLPRPRPRPLWIPRP, the “shrunken log2 fold change” value was -0.445.

Regarding RRIRPRPPRLPRPRPRPTHEPRP, the “shrunken log2 fold change” value worked out at 0.466.

RRIRGRPPRLPRPRPRPIMDPRP: the “shrunken log2 fold change” value came to 0.0794.

For RRIRMRPPRLPRPRPRPWEDPRP, the “shrunken log2 fold change” value was -0.0122.

RRIRARPPRLPRPRPRPMIEPRP: the “shrunken log2 fold change” value was 0.314.

Turning to RRIRNRPPRLPRPRPRPTKIPRP, the “shrunken log2 fold change” value was -0.245.

Regarding RRIRDRPPRLPRPRPRPETQPRP, the “shrunken log2 fold change” value is 0.476.

Turning to RRIRHRPPRLPRPRPRPSRIPRP, the “shrunken log2 fold change” value came out at 0.111.

With RRIRTRPPRLPRPRPRPEQEPRP, the “shrunken log2 fold change” value was -0.0113.

With RRIRHRPPRLPRPRPRPCGNPRP, the “shrunken log2 fold change” value is -0.196.

As for RRIRERPPRLPRPRPRPVCIPRP, the “shrunken log2 fold change” value was -0.541.

As to RRIRFRPPRLPRPRPRPNWTPRP, the “shrunken log2 fold change” value was -0.00237.

Turning to RRIRTRPPRLPRPRPRPYYVPRP, the “shrunken log2 fold change” value is -1.13.

On to RRIRTRPPRLPRPRPRPFRDPRP, for which the “shrunken log2 fold change” value is -0.205.

Take RRIRERPPRLPRPRPRPGEYPRP: the “shrunken log2 fold change” value is -0.267.

For the sequence RRIRSRPPRLPRPRPRPYQPPRP, the “shrunken log2 fold change” value is -0.161.

In the case of RRIRPRPPRLPRPRPRPEHVPRP, the “shrunken log2 fold change” value is 0.0556.

For RRIRDRPPRLPRPRPRPMMPPRP, the “shrunken log2 fold change” value is -0.00348.

For the sequence RRIRCRPPRLPRPRPRPHKYPRP, the “shrunken log2 fold change” value is -0.618.

RRIRCRPPRLPRPRPRPCMCPRP: the “shrunken log2 fold change” value is -0.668.

Consider RRIRERPPRLPRPRPRPPRLPRP, for which the “shrunken log2 fold change” value stood at 0.178.

Turning to RRIRQRPPRLPRPRPRPSKIPRP, the “shrunken log2 fold change” value was -0.143.

As to RRIRMRPPRLPRPRPRPCVNPRP, the “shrunken log2 fold change” value is -0.111.

For the sequence RRIRGRPPRLPRPRPRPNETPRP, the “shrunken log2 fold change” value was found to be 0.0274.

In the case of RRIRPRPPRLPRPRPRPIYDPRP, the “shrunken log2 fold change” value was -0.251.

For the sequence RRIRPRPPRLPRPRPRPSWEPRP, the “shrunken log2 fold change” value was 0.245.
